{
  "source": "patent US20230181681A1",
  "about": "“PEPTIDE FOR SUPPRESSING CORONAVIRUS AND USE THEREOF” (priority 2020, published 2023)",
  "target": "MERS-CoV N protein (MERS-CoV), K9N4V7",
  "data": [
    {"binder": "TGCGTNCMGKLKCNRC (modifications not checked)", "note": "[Spike CD-F]", "values": [
      {"measurement": "percent inhibition of the interaction between Spike CD-Full and N protein", "value": 40, "unit": "%"}
    ]}
  ]
}
